Data as given in doi:10.1101/2023.03.21.532770 (bioRxiv, 2023).

Target: the molecule itself
Experiment: crystal structure

B1: mouse 2,4-Dienoyl-CoA reductase 1 (Decr1) (enzyme, UniProt Q9CQ62 35-335, looked up)
chain: SKDAPQSKFFQPVLKPMLPPDAFQGKVAFITGGGTGLGKAMTTFLSTLGAQCVIASRNIDVLKATAEEISSKTGNKVHAIRCDVRDPDMVHNTVLELIKVAGHPDVVINNAAGNFISPSERLTPNGWKTITDIVLNGTAYVTLEIGKQLIKAQKGAAFLAITTIYAESGSGFVMPSSSAKSGVEAMNKSLAAEWGRYGMRFNIIQPGPIKTKGAFSRLDPTGRFEKEMIDRIPCGRLGTMEELANLATFLCSDYASWINGAVIRFDGGEEVFLSGEFNSLKKVTKEEWDIIEGLIRKTKGS
  stoichiometry N: 4
